{
  "source": "paper PMC8081665",
  "about": "“Structural and biochemical mechanisms of NLRP1 inhibition by DPP9” (Nature, 2021)",
  "molecules": {"B1": {"name": "ZU5 subdomain of the autocleaved rNLRP1 FIIND (domain or fragment, rat, UniProt D9I2G3 822-968, looked up)", "chain": "GDKHMEPLGTDDDFWGPSGPVSTEVVDRERNLYRVRLPMAGSYHCPSTGLHFVVTRAVTIEIGFCAWSQFLHETPLQHSHMVAGPLFDIKAEHGAVTAVCLPHFVSLQEGKVDSSLFHVAHFQDHGMVLETPARVEPHFAVLENPSF", "notes": "rat NLRP1, from the start of the FIIND construct (822) to F968, the residue before the autocleavage site; source: sf21 insect cells, purified; product of the autocleavage of rNLRP1 FIIND (822-1122); not shown: GST, N-terminal, cleaved"}, "B2": {"name": "full-length rat NLRP1 (natural protein, UniProt D9I2G3 1-1218, looked up)", "chain": "MEESQSKQESNTRVAQHGSQQDVDPTFQTKRALEKERSKPRPRPLPRVQLQSLPGWSSTSKDVPLSQLIREMDHESRRCIHRSKKKLDRSEHISQGTIPEIYEKRKETISHTQSMEQKYLFQNFTKLLLLQKCCPGGSEKLVRESWHPCVPEEGGHMIEIQDLFDPNLDTEKKPQLVIIEGAAGIGKSTLARQVKRAWDEGQLYRDRFQHVFFFSCRELAQCKQLSLAELIAQGQEVPTAPTRQILSRPEKLLFILDGIDEPAWVLEDQNPELCVHWSQAQPVHTLLGSLLGKSILPEASLMLTARTTALQKLVPSLGQPHRVEVLGFSEFERKDYFYKYFAKERNTIIDFNLIGSIPVLLTLCEVPWVCWLLCTCLEKQMQQGEVLSLTSQTTTALCLKYLSLTIPGQHLSTQLRTLCSLAAEGICQRRTLFSKSDLCKQGLAEDAIATFLKIGVLQRQPSSLSYSFAHLCLQEFFAAMSYILEDSEEAHGDMGNDRTVETLVERYGRQNLFEAPTVRFLLGLLNTREMREMENIFACKFPWETKLKLLQSIIGEPFCQPCHLGLFHCLYENQEEELLTETMLCFPLTASGPNHMEATVFQTNVKRLVIQTDMELMVVTFCITFSHVRSLRLKGKGQQEYKLTAPAMVLYRWTPISEASWKVLFSNLKCTRNLEELDLSGNPLSYSAVRSLCTALRQPGCRLKTLWLVDCGLTSRCCSFLASMLSAHSRLAELDLRLNDLGDNGVRQLCEGLRNPACNLSILRLDQASLSEQVITELRALETKNPKLFISSTWMSHMTMPTENTDGEESLTSSKQQQQQSGDKHMEPLGTDDDFWGPSGPVSTEVVDRERNLYRVRLPMAGSYHCPSTGLHFVVTRAVTIEIGFCAWSQFLHETPLQHSHMVAGPLFDIKAEHGAVTAVCLPHFVSLQEGKVDSSLFHVAHFQDHGMVLETPARVEPHFAVLENPSFSPMGVLLRMIPAVGHFIPITSITLIYYRLYLEDITFHLYLVPNDCTIRKAIDEEELKFQFVRINKPPPVDALYVGSRYIVSSSKEVEILPKELELCYRSPRESQLFSEIYVGNIGSGINLQLTDKKYMNLIWEALLKPGDLRPALPRMASAPKDAPALLHFVDQHREQLVARVTSVDPLLDKLHGLVLSEEDYETVRAEATNQDKMRKLFRGSRSWSWDCKDHFYQALKETHPHLIMDLLEKSGGVSVRL", "notes": "rat NLRP1, residues 1-1218, gene synthesized from GenBank HM060632.1; Autocleaves in the FIIND between F968 and S969; of the second copy only UPA is seen, and the abstract calls it a UPA-CARD fragment; also called rNLRP1; full-length rNLRP1; source: sf21 insect cells (baculovirus), co-expressed with rDPP9, purified (GS4B, PreScission, gel filtration); not shown: GST, N-terminal, cleaved"}, "B3": {"name": "rNLRP1 FIIND–CARD(S969A) (domain or fragment)", "chain": "GDKHMEPLGTDDDFWGPSGPVSTEVVDRERNLYRVRLPMAGSYHCPSTGLHFVVTRAVTIEIGFCAWSQFLHETPLQHSHMVAGPLFDIKAEHGAVTAVCLPHFVSLQEGKVDSSLFHVAHFQDHGMVLETPARVEPHFAVLENPSFAPMGVLLRMIPAVGHFIPITSITLIYYRLYLEDITFHLYLVPNDCTIRKAIDEEELKFQFVRINKPPPVDALYVGSRYIVSSSKEVEILPKELELCYRSPRESQLFSEIYVGNIGSGINLQLTDKKYMNLIWEALLKPGDLRPALPRMASAPKDAPALLHFVDQHREQLVARVTSVDPLLDKLHGLVLSEEDYETVRAEATNQDKMRKLFRGSRSWSWDCKDHFYQALKETHPHLIMDLLEKSGGVSVRL"}},
  "key": {"[1]": {"target": "GST–rNLRP1 FIIND(S969A) (rat) (UniProt D9I2G3)", "assay": "SEC; Superose 6 10/30, 10 mM Tris pH 8.0, 100 mM NaCl; purified GST–rNLRP1 FIIND(S969A)–rDPP9 complex incubated with fully processed rNLRP1 FIIND at a molar ratio of about 1:1 at 4 °C for 150 min"}, "rat DPP9 (rat) [2]": {"target": "rat DPP9 (rat)", "assay": "cryo-EM structure; purified complex after gel filtration, about 0.3 mg/ml in 25 mM Tris-HCl pH 8.0, 150 mM NaCl, 3 mM DTT; Titan Krios 300 kV"}, "[3]": {"target": "T1, UPA subdomain of the autocleaved rNLRP1 FIIND (rat, UniProt D9I2G3 969-1122)", "T1 construct": "rat NLRP1, from S969, the residue after the autocleavage site, to the end of the FIIND construct (1122); source: sf21 insect cells, purified; product of the autocleavage of rNLRP1 FIIND (822-1122)", "T1 sequence (looked up)": "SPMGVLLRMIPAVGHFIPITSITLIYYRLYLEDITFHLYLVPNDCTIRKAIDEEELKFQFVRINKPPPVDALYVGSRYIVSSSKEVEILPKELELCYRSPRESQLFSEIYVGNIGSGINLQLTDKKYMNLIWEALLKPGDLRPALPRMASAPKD", "assay": "crystal structure; rNLRP1 FIIND at 8 mg/ml, hanging drop at 18 °C, 1.0 M ammonium sulfate, 0.1 M Bis-Tris pH 5.5, 1% PEG 3,350", "conditions": "both partners purified"}, "rat DPP9 (rat) [4]": {"target": "rat DPP9 (rat)", "assay": "cryo-EM structure; purified complex after gel filtration, about 0.3 mg/ml in 25 mM Tris-HCl pH 8.0, 150 mM NaCl, 3 mM DTT; Titan Krios 300 kV", "remark": "listed apart in the source"}, "[5]": {"target": "the molecule itself", "assay": "cryo-EM structure; purified complex after gel filtration, about 0.3 mg/ml in 25 mM Tris-HCl pH 8.0, 150 mM NaCl, 3 mM DTT; Titan Krios 300 kV"}},
  "note": "Read-outs that look alike come from different tables or passages of the source.",
  "data": [
    {"molecule": "rat DPP9 (enzyme)", "values": [
      {"measurement": "stoichiometry N", "setting": "[1]", "value": 1},
      {"measurement": "stoichiometry N", "setting": "rat DPP9 (rat) [2]", "value": 2}
    ]},
    {"molecule": "B1", "values": [
      {"measurement": "binding result", "setting": "[3]", "value": "binds"}
    ]},
    {"molecule": "B2", "values": [
      {"measurement": "stoichiometry N", "setting": "rat DPP9 (rat) [4]", "value": 2},
      {"measurement": "binding result", "setting": "[5]", "value": "binds"}
    ]},
    {"molecule": "B3", "values": [
      {"measurement": "stoichiometry N", "setting": "rat DPP9 (rat) [4]", "value": 1}
    ]}
  ]
}
